From US20230062122A1 (VALO THERAPEUTICS, published 2023) come the findings set out here.

Assay [1] has as its target SIINFEKL on MHC-I (H-2K^b) on C57BL/6 splenocytes (mouse; chicken). As to the kind of experiment: flow cytometry, C57BL/6 splenocytes pulsed 2 h with SIINFEKL and stained with the APC antibody. On the technique in general: Flow cytometry measures light scatter and fluorescence of single cells or particles in a stream.
For assay [2], the target named is T1, MHC-I molecule (H-2K^b) on C57BL/6 splenocytes (mouse, UniProt P01887 21-119; P01901 22-369).
T1 sequence (MHC heavy): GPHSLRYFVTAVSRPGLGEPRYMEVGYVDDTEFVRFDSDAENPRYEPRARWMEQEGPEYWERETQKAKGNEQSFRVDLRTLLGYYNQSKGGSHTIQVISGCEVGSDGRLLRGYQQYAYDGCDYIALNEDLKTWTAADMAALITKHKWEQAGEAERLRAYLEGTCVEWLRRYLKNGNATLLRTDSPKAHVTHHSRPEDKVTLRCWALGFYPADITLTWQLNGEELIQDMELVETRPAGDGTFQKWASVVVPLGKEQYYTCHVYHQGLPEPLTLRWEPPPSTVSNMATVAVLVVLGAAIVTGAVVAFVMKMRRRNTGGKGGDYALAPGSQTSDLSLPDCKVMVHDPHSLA
T1 sequence (b2m): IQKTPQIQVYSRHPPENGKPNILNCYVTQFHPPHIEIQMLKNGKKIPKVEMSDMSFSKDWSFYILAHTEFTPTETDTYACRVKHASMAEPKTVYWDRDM
In words: cell-based or functional assay.

In assay [1], “APC anti-mouse H-2K^b bound to SIINFEKL (BioLegend) (antibody)” showed a % of splenocytes positive of 98.5%.

Turning to SIINFEKLKKKKKK [SIINFEKL-polyK], in assay [2], the “proportion of splenocytes cross-presenting SIINFEKL on MHC-I (flow cytometry with anti-H-2K^b bound to SIINFEKL)” value is 27.1%.

As to SIINFEKLKKKKKK (amino caproic acid (AHX) residue between SIINFEKL and polyK) [SIINFEKL-AHX-polyK], the “proportion of splenocytes cross-presenting SIINFEKL on MHC-I (flow cytometry with anti-H-2K^b bound to SIINFEKL)” value in assay [2] was determined as 1.36%.

Turning to KKKKKKSIINFEKL [polyK-SIINFEKL], the “proportion of splenocytes cross-presenting SIINFEKL on MHC-I (flow cytometry with anti-H-2K^b bound to SIINFEKL)” value in assay [2] amounted to 94.5%.
